Measured values published in paper PMC7110780, “Multimodular fused acetyl–feruloyl esterases from soil and gut Bacteroidetes improve xylanase depolymerization of recalcitrant biomass” (Biotechnology for Biofuels, 2020).

What was measured:
[1] = tested on: CC(=O)Oc1ccc2c(C)cc(=O)oc2c1; assay: purified protein; assay type: biochemical, Bacteroides ovatus; conditions: pH 8.0, 37 °C, 100 mM buffer
[2] = tested on: CC(=O)Oc1ccc([N+](=O)[O-])cc1; assay: purified protein; assay type: biochemical, Bacteroides ovatus; conditions: pH 8.0, 37 °C, 100 mM buffer

Substance | Km [1] | kcat [1] | kcat/Km [1] | Km [2] | kcat [2] | kcat/Km [2]
BoCE1 (Bacteroides ovatus) | 40 ± 10 µM | 0.28 ± 0.01 s⁻¹ | 7100 ± 1600 M⁻¹ s⁻¹ | 1400 ± 100 µM | 0.7 ± 0.02 s⁻¹ | 500 ± 40 M⁻¹ s⁻¹
BoCE6 (Bacteroides ovatus) | 27 ± 6 µM | 1.2 ± 0.1 s⁻¹ | 42800 ± 10000 M⁻¹ s⁻¹ | 1800 ± 200 µM | 36 ± 2.2 s⁻¹ | 20100 ± 2700 M⁻¹ s⁻¹
